No end group written: not given here.
Legend:
[1] = rats, cited from earlier work
[2] = in vivo; cited from earlier work
[3] = One phase I and two phase II randomized double-blind placebo-controlled clinical trials in a surgery program; format: in vivo
Excerpt: The clinical trials in the surgery development program established an intravenous single dosing scheme with perioperative administration via infusion.

[4] = Phase I clinical study, single intravenous doses; format: in vivo; conditions: single intravenous doses of 20 to 400 mg
20 S proteasome = conditions: cited from earlier work
[5] = Two clinical Phase II studies, intravenous doses; format: in vivo; conditions: intravenous doses of 200 mg
[6] = tested on: MCP-1 (macrophage chemoattractant protein-1; CCL2); conditions: U937 cells, LPS; cited from earlier work
[7] = after heart transplantation, myocardial infarction, skeletal muscle ischemia; cited from earlier work
[8] = tested on: transcription factors AP-1 and NF-κB; conditions: U937 cells; cited from earlier work
[9] = after esophageal cancer surgery

Substance | accumulation in other organs, including the brain ([1]; 24 h p.i.) | radioactivity in the dissected kidney ([1]; 24 h p.i.) [%ID/g] | terminal elimination half-life in blood ([1]; bolus intravenous injection, blood) [h] | maximum accumulation in the kidney ([1]; kidney, 5 min post injection, SPECT) | share of detected radioactivity in the kidney identified as not metabolized ([1]; kidney, 24 h p.i.) [%] | ventilator induced injury [2] | kidney, liver and heart organ damages [3, 9] | organ protective effect (length of ICU stay) [3, 9] | tolerability of intravenous application ([3]; one phase I and two phase II trials, surgery program) | safety concerns ([3]; surgery program clinical trials) | tolerability [4] | inhibition of peptidase activities associated with the 20 S proteasome (20 S proteasome) | tolerability [5] | production of MCP-1 [6] | reperfusion injury [7] | LPS-induced activation of AP-1 and NF-κB [8]
99mTc-elafin: 99mTc-labeled elafin used for SPECT pharmacokinetics in rats (AQEPVKGPVSTKPGSCPIILIRCAMLNPPNRCLKDTDCPGIKKCCEGSCGMACFVPQ; ends and bridges not checked; also: 99mTc label; UniProt P19957 61-117, looked up) | no accumulation | 4.98±1.24 | 3.33 | 8.5%±0.1% | 30 |  |  |  |  |  |  |  |  |  |  | 
Tiprelestat: INN name of elafin; recombinant human protein of 57 amino acids, about 6 kDa, inhibitor of elastase and proteinase 3 (AQEPVKGPVSTKPGSCPIILIRCAMLNPPNRCLKDTDCPGIKKCCEGSCGMACFVPQ; listed as Homo sapiens) |  |  |  |  |  | able to reduce | trend towards lower | organ protective effect was confirmed | well tolerated | No major safety concerns were observed | well tolerated | no inhibition | well tolerated | inhibition of the production | suppresses reperfusion injury | inhibited

Reference: patent publication US20230285523A1, “USE OF ELAFIN IN THE TREATMENT OF COVID-19” (priority 2021, published 2023)
